# Reference: patent US20160194641, “G-RICH isoDNA SEQUENCES FORMING G-QUADRUPLEX STRUCTURE, THEIR FUNCTION AS [sequence] AND A PROCESS FOR THE PREPARATION THEREOF” (COUNCIL OF SCIENTIFIC & INDUSTRIAL RESEARCH, published 2016)
# Target: thrombin (Bos taurus, UniProt P00735;P00735 P00735:318-366,P00735:367-625)
# Experiment: CD titration at 295 nm, low temperature, without K+; signal increases with thrombin; Tm with thrombin 22 C (53 C with K+)
# Settings: tags: copies: 1; antiparallel unimolecular G4
# Procedure: CD spectra were recorded on Jasco J-815 CD Spectrometer equipped with a Jasco PTC-424S/15 peltier system. 2 mm path-length quartz cuvettes were used for a sample volume 500 μl and strand concentration of 5 μM in 10 mM Na/K-phosphate buffer (pH 7.5) containing 100 mM NaCl/KCl respectively. Oligomers prepared in buffer were annealed by heating at 95° C. for 5 minutes, then slowly cooled to room temperature, followed by refrigeration for 5-6 hours before use. Spectral scans were collected over a wavelength range 200-320 nm at a scanning rate of 100 nm min⁻¹. The spectra were collected as an average of three scans for each sample.
# Biochem. Biophys. Res. Commun. 352, 812-817 (2007). […] An increase in the CD signal amplitude upon incremental addition of thrombin is observed even at relatively low concentrations of thrombin. In case of isod-TBA-2 and isod-TBA-3, CD band at 295 nm and G-quadruplex structure was not evident in the absence of either thrombin or K⁺, which is also supported by ¹H NMR. Upon incremental addition of thrombin, the CD maximum at 295 nm emerges for isod-TBA-2 and isod-TBA-3. […] Further, the temperature-dependent stability of the quadruplex structure was followed by recording the CD amplitude at 295 nm with increasing temperature. The strength of d-TBA-1 G-quadruplex was the highest with Tₘ=22° C., followed by iso-d-TBA-3 (Tₘ 13° C.) and iso-d-TBA-2 (Tₘ<10° C.). […]
binder,measurement,value
GGTTGGTGTGGTTGG (structured_DNA) [d-TBA-1],binding result,binds
